Assay results published in US20110117113A1, “IMMUNOGLOBULIN SINGLE VARIABLE DOMAIN DIRECTED AGAINST HUMAN CXCR4 AND OTHER CELL ASSOCIATED PROTEINS AND METHODS TO GENERATE THEM” (priority 2009, published 2011).

Assays:
[1] = biological target: all CXCR4 library clones containing a mutation at F189; assay: immunofluorescence, average over all clones with a mutation at F189
[2] = biological target: T1, CXCR4 mutation library clone 914 (N192K) (human, UniProt P61073 1-352); assay: immunofluorescence, high stringency, average for residue N192 (one clone)
[3] = biological target: all CXCR4 library clones containing a mutation at E277; assay: immunofluorescence, high stringency, average over all clones with a mutation at E277
[4] = biological target: CXCR4 mutation library clone 2396 (S178C) (human, UniProt P61073 1-352); assay: immunofluorescence on HEK-293T expressing the clone, normalised to wild type
[5] = biological target: T2, CXCR4 mutation library clone 709 (P163L, S178I) (human, UniProt P61073 1-352); assay: as above
T2 chain: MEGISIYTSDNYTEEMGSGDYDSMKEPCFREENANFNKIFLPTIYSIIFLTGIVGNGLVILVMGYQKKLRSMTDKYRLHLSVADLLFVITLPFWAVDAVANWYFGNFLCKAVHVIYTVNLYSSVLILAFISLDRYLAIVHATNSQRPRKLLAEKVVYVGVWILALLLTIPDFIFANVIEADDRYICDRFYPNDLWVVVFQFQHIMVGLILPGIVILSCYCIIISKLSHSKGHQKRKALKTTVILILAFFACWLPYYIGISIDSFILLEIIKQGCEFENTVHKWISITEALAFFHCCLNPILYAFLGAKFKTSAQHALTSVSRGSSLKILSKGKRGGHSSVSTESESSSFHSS

[6] = biological target: T3, CXCR4 mutation library clone 1057 (K230E, S178R) (human, UniProt P61073 1-352); assay: as above
T3 chain: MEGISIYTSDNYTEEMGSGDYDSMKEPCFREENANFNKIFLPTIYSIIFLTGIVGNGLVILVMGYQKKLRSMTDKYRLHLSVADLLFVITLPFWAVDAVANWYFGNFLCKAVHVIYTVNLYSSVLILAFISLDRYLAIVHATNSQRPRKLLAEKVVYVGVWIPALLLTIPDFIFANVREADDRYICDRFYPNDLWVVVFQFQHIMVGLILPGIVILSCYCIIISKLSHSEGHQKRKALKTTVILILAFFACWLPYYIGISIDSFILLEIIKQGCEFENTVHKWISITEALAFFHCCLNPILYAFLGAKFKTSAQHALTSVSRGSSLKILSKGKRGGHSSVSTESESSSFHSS

[7] = biological target: T4, CXCR4 mutation library clone 414 (C218R, E179V, S351T) (human, UniProt P61073 1-352); assay: as above
T4 chain: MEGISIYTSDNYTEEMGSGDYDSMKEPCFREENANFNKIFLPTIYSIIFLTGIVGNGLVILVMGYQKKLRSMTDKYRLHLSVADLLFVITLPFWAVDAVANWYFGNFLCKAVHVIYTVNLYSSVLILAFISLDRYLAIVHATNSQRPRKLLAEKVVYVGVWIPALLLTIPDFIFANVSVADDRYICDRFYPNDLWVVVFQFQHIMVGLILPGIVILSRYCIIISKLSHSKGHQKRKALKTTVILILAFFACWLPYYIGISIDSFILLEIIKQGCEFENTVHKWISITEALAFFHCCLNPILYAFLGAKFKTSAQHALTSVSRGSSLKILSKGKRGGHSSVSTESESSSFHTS

[8] = biological target: T5, CXCR4 mutation library clone 2834 (E179V, G258E) (human, UniProt P61073 1-352); assay: as above
T5 chain: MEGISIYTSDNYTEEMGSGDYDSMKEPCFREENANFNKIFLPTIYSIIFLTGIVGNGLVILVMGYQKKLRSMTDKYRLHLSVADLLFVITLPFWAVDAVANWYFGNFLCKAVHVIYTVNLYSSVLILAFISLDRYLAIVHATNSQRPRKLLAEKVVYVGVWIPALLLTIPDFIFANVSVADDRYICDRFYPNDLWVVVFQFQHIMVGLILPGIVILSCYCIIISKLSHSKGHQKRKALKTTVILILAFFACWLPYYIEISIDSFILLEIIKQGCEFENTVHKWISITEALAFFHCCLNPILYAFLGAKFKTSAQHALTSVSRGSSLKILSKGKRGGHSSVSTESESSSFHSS

[9] = biological target: T1, CXCR4 mutation library clone 914 (N192K); assay: as above

average nanobody reactivity [1]: -0.9%
average nanobody reactivity [2]: 8.3%
average nanobody reactivity [3]: 27.5%
% immunofluorescence [4]: 44.9%
% immunofluorescence [5]: 64.1%
% immunofluorescence [6]: 54.6%
% immunofluorescence [7]: 71.1%
% immunofluorescence [8]: 84.6%
% immunofluorescence [9]: 8.3%
B1: Nanobody 238D2 (VHH)
VHH: EVQLVESGGGLVQTGGSLRLSCAASGFTFSSYAMSWVRQAPGKGLEWVSGIKSSGDSTRYAGSVKGRFTISRDNAKNMLYLQMYSLKPEDTAVYYCAKSRVSRTGLYTYDNRGQGTQVTVSS
